In the Immune Epitope Database (IEDB):
Values belong to the sequence of their own block, whether it stands above or below them.

Tests used:
[1] = target: HLA-A*02:01; assay: IEDB peptide-MHC binding, purified MHC/competitive/radioactivity; ≥ and ≤ were set here for values at or beyond the usual limits of such assays; details: source organism: Hepatitis B virus subtype adyw
[2] = target: HLA-A*03:01; assay: IEDB peptide-MHC binding, purified MHC/competitive/radioactivity; filed as Kd, often an IC50 or EC50 that approximates it; ≥ and ≤ were set here for values at or beyond the usual limits of such assays
[3] = target: HLA-A*24:02; assay: as above
[4] = target: HLA-A*01:01; assay: as above
[5] = target: HLA-A*11:01; assay: as above
[6] = target: HLA-A*03:01; assay: IEDB peptide-MHC binding, purified MHC/competitive/radioactivity; ≥ and ≤ were set here for values at or beyond the usual limits of such assays; details: source organism: Human immunodeficiency virus type 1 (NDK ISOLATE)
[7] = target: HLA-A*02:01; assay: IEDB peptide-MHC binding, purified MHC/competitive/radioactivity; filed as Kd, often an IC50 or EC50 that approximates it; ≥ and ≤ were set here for values at or beyond the usual limits of such assays
[8] = source organism: Human immunodeficiency virus type 1 (NDK ISOLATE)
[9] = source organism: Hepatitis B virus subtype adyw
[10] = source organism: Plasmodium falciparum

Sequence: FLPSDFFPS
- IC50 [1]: 0.117 µM

- Kd ([2]; source organism: Homo sapiens): ≥ 5 µM
- Kd ([3]; source organism: Homo sapiens): ≥ 5 µM
- Kd ([4]; source organism: Homo sapiens): ≥ 5 µM
- Kd ([5]; source organism: Homo sapiens): ≥ 5 µM
Sequence: LLGRNSFEV

Sequence: AVDLSHFLK
- IC50 [6]: 0.149 µM
- Kd [3, 8]: ≥ 5 µM
- Kd [4, 8]: ≥ 5 µM
- Kd [7, 8]: ≥ 5 µM

Sequence: ILKEPVHGV
- Kd [2, 8]: ≥ 5 µM
- Kd [3, 8]: ≥ 5 µM
- Kd [4, 8]: ≥ 5 µM
- Kd [5, 8]: ≥ 5 µM

Sequence: PSDFFPSV
- Kd [7, 9]: ≥ 50 µM

Sequence: ELRSRYWAI
- Kd ([3]; source organism: Influenza A virus (A/Puerto Rico/8/1934(H1N1))): ≥ 5 µM

Sequence: KPIVQYDNF
- Kd [2, 10]: ≥ 5 µM
- Kd [3, 10]: ≥ 5 µM
- Kd [4, 10]: ≥ 5 µM
- Kd [7, 10]: ≥ 5 µM
- Kd [5, 10]: ≥ 5 µM

Sequence: WLSLLVPFV
- Kd [4, 9]: ≥ 5 µM

Sequence: FLPSDFFP
- Kd [7, 9]: ≥ 50 µM

- Kd ([2]; source organism: Homo sapiens): ≥ 5 µM
- Kd ([3]; source organism: Homo sapiens): ≥ 5 µM
- Kd ([4]; source organism: Homo sapiens): ≥ 5 µM
- Kd ([7]; source organism: Homo sapiens): ≥ 5 µM
- Kd ([5]; source organism: Homo sapiens): ≥ 5 µM
Sequence: KRYEGLTQR

- Kd ([2]; source organism: Homo sapiens): ≥ 5 µM
- Kd ([3]; source organism: Homo sapiens): ≥ 5 µM
- Kd ([4]; source organism: Homo sapiens): ≥ 5 µM
- Kd ([7]; source organism: Homo sapiens): ≥ 5 µM
- Kd ([5]; source organism: Homo sapiens): ≥ 5 µM
Sequence: RRYQKSTEL

Sequence: FLPSDFFPSVR
- IC50 [1]: 0.305 µM

- Kd ([3]; source organism: Homo sapiens): ≥ 5 µM
- Kd ([5]; source organism: Homo sapiens): ≥ 5 µM
Sequence: EADPTGHSY

Sequence: SFLPSDFFPSV
- Kd [7, 9]: ≥ 50 µM
